The values below come from patent publication US20060052301A1, “Splice variants of peptide YY, neuropeptide Y, pancreatic peptide Y and Amylin, and uses thereof” (priority 2004, published 2006).

Data set [1] has as its system ob/ob female mice. As to the kind of experiment: Treatment effects on body weight and food intake, continuous infusion by Alzet mini-osmotic pump. The settings on record: 300 or 1000 μg/Kg/day. It is filed as in vivo. As to the method:
Assessment of potential treatment effect on body weight and food intake by PYY variants of the present invention is performed under blinded conditions. The test system includes 40 ob/ob female mice, each about 50 g & 12 weeks of age at study initiation, in 5 groups (n=8), housed 4 per cage.
The first week, representing the first stage of the experiment, is the first acclimatization stage, when the 12 hours light and dark cycles regime is applied at the same hours of the day (light cycle is between 6:30-18:30). The viability check and clinical signs observations are checked daily.
The second week of the experiment, is the second acclimatization stage, when the same 12 hours/12 hours light and dark cycles regime is applied. At this stage, every day at the same time each day, the following parameters are assessed: daily viability check and clinical signs observations, including for example, changes in skin, fur, eyes, mucous membranes, secretions, activity and response to handling, as well as any unusual behavior, sleep and coma; body weight measurement 3 times/week; and food consumption measurement 1 time/daily for 5 days a week.
The third stage, days 15-43 (weeks 3-6 of the experiment), is the test compound administration stage.
On day 15, an Alzet mini-osmotic pump (model 2004), is surgically inserted into each test animal, under general anesthesia. […]

The nature of data set [2]: In-vitro stability study in acetate buffer (Alzet pump model, HPLC). The format is physicochemical. The settings on record: 20 mM acetate buffer pH 4.0, 37° C., 28 days. As to the method: (Alzet in-vitro protocol, DURECT Corporation, Calif., USA) following the analysis of the solutions by HPLC.
In all the cases 2 or 3 different experiments were carried out.

The conditions of data set [3]: in rats, in rabbits, and in humans with Paget's disease; cited from earlier work.

Regarding “PYY variant: PYY splice variant skipping exon 3, residues 3-42, SEQ ID NO:75; lacks last Tyr, adds 7 C-terminal residues SEGPDLW”, the body weight gain entry in data set [1] (28 days, versus control group) is “gain significantly less weight than the control group”. In addition, the food intake result in data set [1] (especially during the first days of the study) is on record as “significant effect of reduction in the food intake”. The figures for the “Purity (%) (average ± stdev)” value in data set [2] (high dose (PYY[3-36] 10.6 mg/ml; PYY variant [3-42] 12.8 mg/ml)) and in data set [2] (low dose (PYY[3-36] 3.3 mg/ml; PYY variant [3-42] 3.9 mg/ml)) were 72.3 ± 0.2% and 69.2 ± 0.6%, respectively.

B1: Amylin: 37-amino acid monomeric polypeptide hormone co-secreted with insulin from pancreatic beta cells (peptide, listed as Homo sapiens)
chain: MGILKLQVFLIVLSVALNHLKATPIESHQVEKRKCNTATCATQRLANFLVHSSNNFGAILSSTNVGSNTYGKRNAVEVLKREPLNYLPL
For the molecule B1, in data set [3], the “lowering of plasma calcium” value is given as “up to 20%”.
